Assay [1] concerns the target rat brain membrane K channels (delayed rectifier, primarily Kv1.2) (rat) (UniProt P63142). Put plainly: 125I-DTX displacement, rat brain membranes.
The target is the same in assay [2].
The target of assay [3] is Kv1.3 potassium channel of human T lymphocytes (human) (UniProt P22001).
For assay [4], the target named is rat brain membrane K channels (delayed rectifier, primarily Kv1.2) (rat) (UniProt P63142). This is another data set of the same source.
Assay [5] has as its target Kv1.3 potassium channels in Jurkat T lymphocytes (Homo sapiens, UniProt P22001). In kind it is cell-based.
The test system of assay [6] is rat brain membrane K channels (primarily Kv1.2). The assay is classed as binding. Particulars: for IC50: read-out: IC50 Rat Brain 125I-CTX.
The target in assay [7] is rat brain membrane K channels (delayed rectifier, primarily Kv1.2) (rat) (UniProt P63142). The source holds these as a separate data set.
Assay [8] addresses cloned Kv1.3 channel, wild type.
In assay [9] the target is rat brain membrane K channels (delayed rectifier, primarily Kv1.2) (rat) (UniProt P63142). This is another data set of the same source.
Assay [10] shares this target. This is another data set of the same source.
The target of assay [11] is Kv1.3 potassium channel of human T lymphocytes (human, UniProt P22001). Put plainly: 125I-ChTX displacement, Jurkat T lymphocytes.

This note sets out measurements from patent publication US6077680A (The University of Florida, dated 2000).

Where two headings read alike, the source gives them in different places. A value given as a limit tells only on which side of the number the result lay.

Chain of Kv1.3 potassium channels in Jurkat T lymphocytes (P22001 whole entry): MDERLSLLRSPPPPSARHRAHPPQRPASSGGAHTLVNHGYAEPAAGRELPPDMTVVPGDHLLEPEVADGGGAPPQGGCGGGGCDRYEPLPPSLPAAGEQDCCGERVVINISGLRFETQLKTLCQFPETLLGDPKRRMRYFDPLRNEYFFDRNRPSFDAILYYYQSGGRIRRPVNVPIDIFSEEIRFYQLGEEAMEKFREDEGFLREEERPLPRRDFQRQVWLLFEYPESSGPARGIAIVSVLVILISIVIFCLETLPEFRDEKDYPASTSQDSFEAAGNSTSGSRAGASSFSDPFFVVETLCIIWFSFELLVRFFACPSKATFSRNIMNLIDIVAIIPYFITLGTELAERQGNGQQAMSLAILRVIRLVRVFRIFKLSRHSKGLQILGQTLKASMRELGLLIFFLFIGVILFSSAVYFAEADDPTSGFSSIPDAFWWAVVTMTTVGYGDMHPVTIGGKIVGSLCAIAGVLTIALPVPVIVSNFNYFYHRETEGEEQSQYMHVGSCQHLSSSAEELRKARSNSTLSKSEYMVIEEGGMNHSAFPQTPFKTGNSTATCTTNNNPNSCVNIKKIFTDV
Chain of rat brain membrane K channels (delayed rectifier, primarily Kv1.2) (rat) (P63142 whole entry): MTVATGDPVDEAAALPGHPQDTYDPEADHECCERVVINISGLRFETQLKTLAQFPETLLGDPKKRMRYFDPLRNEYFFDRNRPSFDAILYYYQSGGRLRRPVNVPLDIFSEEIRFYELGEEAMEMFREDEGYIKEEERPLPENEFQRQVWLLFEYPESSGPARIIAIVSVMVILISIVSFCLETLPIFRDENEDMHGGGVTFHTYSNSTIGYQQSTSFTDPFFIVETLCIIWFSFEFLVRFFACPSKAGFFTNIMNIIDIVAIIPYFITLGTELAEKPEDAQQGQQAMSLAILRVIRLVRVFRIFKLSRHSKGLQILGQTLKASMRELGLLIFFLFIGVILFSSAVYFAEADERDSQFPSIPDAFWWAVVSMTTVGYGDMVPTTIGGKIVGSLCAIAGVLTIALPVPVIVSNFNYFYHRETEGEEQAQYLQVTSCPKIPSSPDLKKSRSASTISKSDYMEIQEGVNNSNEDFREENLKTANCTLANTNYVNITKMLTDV
Chain of Kv1.3 potassium channel of human T lymphocytes (human) (P22001 whole entry): as the sequence (P22001 whole entry) above

Consider ShK K22Nle (peptide), for which the IC50 ratio (analog IC50/ShK IC50) in [1] is over 250. Further, in assay [2], the IC50 ratio (analog IC50/ShK IC50) is over 250 and the free energy difference of binding was over 3.23 kcal/mol. Also, the equipotent molar ratio (analog IC50/ShK IC50) for block of Kv1.3 current in [3] is over 23.

ShK K22 citrulline (peptide) returned an IC50 in [4] of 2000 nM.

For the molecule `CC[C@H](C)[C@@H]1NC(=O)[C@@H](NC(=O)[C@H](CO)NC(=O)[C@@H](N)CCCNC(=N)N)CSSC[C@@H](C(=O)O)NC(=O)[C@H]([C@@H](C)O)NC(=O)CNC(=O)[C@@H]2CSSC[C@@H]3NC(=O)[C@H](CCC(N)=O)NC(=O)[C@H](Cc4ccccc4)NC(=O)[C@H](C)NC(=O)[C@H]([C@@H](C)O)NC(=O)[C@H](CSSC[C@H](NC(=O)[C@H](Cc4ccccc4)NC(=O)[C@H](CO)NC(=O)[C@H](CC(C)C)NC(=O)[C@H](CCCNC(=N)N)NC(=O)[C@H](Cc4ccc(O)cc4)NC(=O)[C@H](CCCNC(=N)N)NC(=O)[C@H](CCSC)NC(=O)[C@H](CO)NC(=O)[C@H](Cc4c[nH]cn4)NC(=O)[C@H](CCCCN)NC3=O)C(=O)N[C@@H](CCCNC(=N)N)C(=O)N[C@@H](CCCCN)C(=O)N[C@@H]([C@@H](C)O)C(=O)N2)NC(=O)[C@H](CCCNC(=N)N)NC(=O)[C@H](CO)NC(=O)[C@H](CCCCN)NC(=O)[C@@H]2CCCN2C(=O)[C@H]([C@@H](C)CC)NC(=O)[C@H]([C@@H](C)O)NC(=O)[C@H](CC(=O)O)NC1=O` [K22R], in [5], the “Equipotent Molar Ration (Analog IC50 /ShK IC50) Lymphocyte” value was 225 and the “reduction of affinity (IC50) for Kv1.3 relative to ShK toxin” value is listed as over 225 fold. For the same molecule, in [6], the “Equipotent Molar Ration (Analog IC50 /ShK IC50) Rat brain” value is over 500, the “IC50 Ratio” value is listed as over 500, the ΔF was over 3.65 and the IC50 came out at 2000 nM.

On to ShK Y23Cha (peptide), for which, in assay [1], the IC50 ratio (analog IC50/ShK IC50) came out at 8.8 and the free energy difference of binding stood at 1.27 kcal/mol. Moreover, in [7], the IC50 ratio (analog IC50/ShK IC50) was 8.8 and the free energy difference of binding stood at 1.27 kcal/mol.

In the case of ShK K9Q (peptide), the IC50 ratio (analog IC50/ShK IC50) in assay [1] is 0.6. This molecule also showed an IC50 in assay [4] of 11 nM. For the same molecule, the equipotent molar ratio (analog IC50/ShK IC50) for block of Kv1.3 current in [3] was determined as 9.6.

In the case of ShK Y23Bpa (peptide), in assay [7], the IC50 ratio (analog IC50/ShK IC50) is 3.76 and the free energy difference of binding was found to be 0.78 kcal/mol.

As to ShK Y23Apa (peptide), the IC50 ratio (analog IC50/ShK IC50) in assay [1] and in assay [7] was 0.8 each time. The same molecule had an equilibrium dissociation constant (Kd) in assay [8] of 0.12 nM. This molecule also had a free energy difference of binding in assay [7] of -0.13 kcal/mol.

With ShK R1S (peptide), the IC50 ratio (analog IC50/ShK IC50) in assay [1] was 1.5. Besides, in assay [4], the IC50 came to 16 nM. Also, in assay [3], the equipotent molar ratio (analog IC50/ShK IC50) for block of Kv1.3 current stood at 0.92.

For the molecule ShK F27Cha (peptide), the IC50 ratio (analog IC50/ShK IC50) in [1] and in assay [9] was 0.7 in each case. The free energy difference of binding in assay [1] and in assay [9] was -0.21 kcal/mol each time.

ShK R1A (peptide): in assay [1], the IC50 ratio (analog IC50/ShK IC50) is 1.5 and the free energy difference of binding amounted to 0.23 kcal/mol.

As for `CCCC[C@@H]1NC(=O)[C@H](CO)NC(=O)[C@H](Cc2c[nH]cn2)NC(=O)[C@H](CCCCN)NC(=O)[C@@H]2CSSC[C@@H]3NC(=O)[C@H]([C@@H](C)O)NC(=O)[C@H](CCCCN)NC(=O)[C@H](CCCNC(=N)N)NC(=O)[C@H](CSSC[C@H](NC(=O)[C@H](CCCNC(=N)N)NC(=O)[C@H](CO)NC(=O)[C@H](CCCCN)NC(=O)[C@@H]4CCCN4C(=O)[C@H]([C@@H](C)CC)NC(=O)[C@H]([C@@H](C)O)NC(=O)[C@H](CC(=O)O)NC(=O)[C@H]([C@@H](C)CC)NC(=O)[C@@H](NC(=O)[C@H](CO)NC(=O)[C@@H](N)CCCNC(=N)N)CSSC[C@@H](C(=O)O)NC(=O)[C@H]([C@@H](C)O)NC(=O)CNC3=O)C(=O)N[C@@H]([C@@H](C)O)C(=O)N[C@@H](C)C(=O)N[C@@H](Cc3ccccc3)C(=O)N[C@@H](CCC(N)=O)C(=O)N2)NC(=O)[C@H](Cc2ccccc2)NC(=O)[C@H](CO)NC(=O)[C@H](CC(C)C)NC(=O)[C@H](CCCNC(=N)N)NC(=O)[C@H](Cc2ccc(O)cc2)NC(=O)[C@H](CCCCN)NC1=O` [M21Nle], the “Equipotent Molar Ration (Analog IC50 /ShK IC50) Lymphocyte” value in assay [5] worked out at 0.80. In assay [6], the “Equipotent Molar Ration (Analog IC50 /ShK IC50) Rat brain” value stood at 0.8, the “effect on binding to either K channel subtype” value is recorded as “no significant affect on binding” and the IC50 was found to be 9 nM.

As to ShK K22Homocit (peptide), the IC50 ratio (analog IC50/ShK IC50) in assay [1] and in assay [2] was over 500 in each case. In addition, the Kd in [8] was over 100 nM. Also, in [2], the free energy difference of binding is over 3.65 kcal/mol.

ShK Y23Nph (peptide): the IC50 ratio (analog IC50/ShK IC50) in [1] was determined as 1. The same molecule came in with a Kd in [8] of 0.2 nM. In [7], the IC50 ratio (analog IC50/ShK IC50) stood at 1 and the free energy difference of binding was determined as 0 kcal/mol.

Take ShK P8A (peptide): in assay [1], the IC50 ratio (analog IC50/ShK IC50) was determined as 1.9 and the free energy difference of binding amounted to 0.38 kcal/mol.

As for ShK K9A (peptide), in assay [1], the IC50 ratio (analog IC50/ShK IC50) was found to be 1.3 and the free energy difference of binding is 0.15 kcal/mol.

With ShK M21Nle (peptide), the IC50 ratio (analog IC50/ShK IC50) in assay [1] was 0.8. For the same molecule, in [4], the 50% inhibitory concentration (IC50) stood at 9 nM. The equipotent molar ratio (analog IC50/ShK IC50) for block of Kv1.3 current in assay [3] worked out at 0.8.

As for `CC[C@H](C)[C@@H]1NC(=O)[C@@H](NC(=O)[C@H](CO)NC(=O)[C@@H](N)CCCNC(=N)N)CSSC[C@@H](C(=O)O)NC(=O)[C@H]([C@@H](C)O)NC(=O)CNC(=O)[C@@H]2CSSC[C@@H]3NC(=O)[C@H](CCC(N)=O)NC(=O)[C@H](Cc4ccccc4)NC(=O)[C@H](C)NC(=O)[C@H]([C@@H](C)O)NC(=O)[C@H](CSSC[C@H](NC(=O)[C@H](Cc4ccccc4)NC(=O)[C@H](CO)NC(=O)[C@H](C)NC(=O)[C@H](CCCNC(=N)N)NC(=O)[C@H](Cc4ccc(O)cc4)NC(=O)[C@H](CCCCN)NC(=O)[C@H](CCSC)NC(=O)[C@H](CO)NC(=O)[C@H](Cc4c[nH]cn4)NC(=O)[C@H](CCCCN)NC3=O)C(=O)N[C@@H](CCCNC(=N)N)C(=O)N[C@@H](CCCCN)C(=O)N[C@@H]([C@@H](C)O)C(=O)N2)NC(=O)[C@H](CCCNC(=N)N)NC(=O)[C@H](CO)NC(=O)[C@H](CCCCN)NC(=O)[C@@H]2CCCN2C(=O)[C@H]([C@@H](C)CC)NC(=O)[C@H]([C@@H](C)O)NC(=O)[C@H](CC(=O)O)NC1=O` [L25A], in assay [6], the “Difference of Free Energy of Binding” value is given as 0.20 and the “IC50 Ratio” value is recorded as 1.4.

As to `CC[C@H](C)[C@@H]1NC(=O)[C@@H](NC(=O)[C@H](CO)NC(=O)[C@@H](N)CCCNC(=N)N)CSSC[C@@H](C(=O)O)NC(=O)[C@H]([C@@H](C)O)NC(=O)CNC(=O)[C@@H]2CSSC[C@@H]3NC(=O)[C@H](CCC(N)=O)NC(=O)[C@H](Cc4ccccc4)NC(=O)[C@H](C)NC(=O)[C@H]([C@@H](C)O)NC(=O)[C@H](CSSC[C@H](NC(=O)[C@H](Cc4ccccc4)NC(=O)[C@H](CO)NC(=O)[C@H](CC(C)C)NC(=O)[C@H](CCCNC(=N)N)NC(=O)[C@H](Cc4ccc(O)cc4)NC(=O)[C@H](CCCCN)NC(=O)[C@H](CCSC)NC(=O)[C@H](CO)NC(=O)[C@H](Cc4c[nH]cn4)NC(=O)[C@H](CCCCN)NC3=O)C(=O)N[C@@H](CCCNC(=N)N)C(=O)N[C@@H](CCCCN)C(=O)N[C@@H]([C@@H](C)O)C(=O)N2)NC(=O)[C@H](CCCNC(=N)N)NC(=O)[C@H](CO)NC(=O)[C@H](CCC(N)=O)NC(=O)[C@@H]2CCCN2C(=O)[C@H]([C@@H](C)CC)NC(=O)[C@H]([C@@H](C)O)NC(=O)[C@H](CC(=O)O)NC1=O` [K9Q], in assay [5], the “Equipotent Molar Ration (Analog IC50 /ShK IC50) Lymphocyte” value is given as 9.6 and the “reduction of affinity (IC50) for Kv1.3 relative to ShK toxin” value was 9.6 fold. In [6], the “Equipotent Molar Ration (Analog IC50 /ShK IC50) Rat brain” value is reported as 0.6 and the IC50 turned out to be 11 nM.

As for ShK desR1-S2 (peptide), the IC50 ratio (analog IC50/ShK IC50) was found to be 2.5 in assay [1] and 2.54 in assay [9]. Moreover, the free energy difference of binding in [1] and in assay [9] was 0.54 kcal/mol in each case.

On to “RSCADTIPKSRCTAAQCKHSMKYRLSFCRKRCGTC [A4 + A15]”, for which, in assay [6], the “Equipotent Molar Ratio (Analog IC50 /ShK IC50)” value worked out at 0.5; the “Free Energy Differ. of Binding ΔF” value is on record as -0.41; the “IC50 Ratio” value amounted to 0.5; the “binding affinity for rat brain K channels relative to wild-type ShK toxin, in words” value is on record as “more potent than the wild-type toxin”. In addition, the ΔF in assay [6] was -0.41.

As for ShK I7A (peptide), in assay [1], the IC50 ratio (analog IC50/ShK IC50) was determined as 5.2 and the free energy difference of binding is 0.96 kcal/mol.

ShK A15 + A25 (peptide): in assay [1], the IC50 ratio (analog IC50/ShK IC50) came out at 2.1 and the free energy difference of binding was 0.43 kcal/mol. Also, in assay [10], the IC50 ratio (analog IC50/ShK IC50) is 2.1 and the free energy difference of binding worked out at 0.43 kcal/mol.

B1: ShK R1S (peptide)
peptide: SSCIDTIPKSRCTAFQCKHSMKYRLSFCRKTCGTC
For B1, the IC50 in assay [11] worked out at 0.05 nM.

B2: ShK K9Q (peptide)
peptide: RSCIDTIPQSRCTAFQCKHSMKYRLSFCRKTCGTC
For the molecule B2, the IC50 in assay [11] was 0.31 nM.

As usually defined, the IC50 is the concentration that inhibits the measured activity by half. By Kd is commonly meant the concentration at which binding is half-saturated. Lower therefore signals a tighter complex.
